Reference: US20100034738A1 (IMMUNOMEDICS, published 2010)
Substitutions are numbered along the chain they refer to. Names and notes keep the numbering of the source. Each block holds one molecule with its values, some of them ahead of it.

Experiments:
[1] = biological target: T1, CD20 (human B lymphocyte-restricted differentiation antigen, Bp35) (human) (UniProt P11836); assay: flow cytometry, PE-labelled MAb dissociating from Raji cells, without competing veltuzumab-Fab'-NEM
T1 sequence (looked up): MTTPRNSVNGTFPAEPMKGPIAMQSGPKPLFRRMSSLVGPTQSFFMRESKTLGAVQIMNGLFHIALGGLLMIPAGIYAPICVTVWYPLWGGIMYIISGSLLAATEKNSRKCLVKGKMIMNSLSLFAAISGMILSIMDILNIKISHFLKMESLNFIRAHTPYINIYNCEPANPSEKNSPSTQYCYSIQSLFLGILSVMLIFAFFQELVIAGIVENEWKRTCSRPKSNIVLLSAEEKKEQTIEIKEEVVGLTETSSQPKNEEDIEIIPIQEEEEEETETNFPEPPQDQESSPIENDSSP

[2] = biological target: T1, CD20 (human B lymphocyte-restricted differentiation antigen, Bp35) (human); assay: cell-based or functional assay
[3] = biological target: T2, CD20 (human B lymphocyte-restricted differentiation antigen, Bp35) (human, UniProt P11836 1-297); assay: flow cytometry, PE-labelled MAb dissociating from Raji cells, without competing veltuzumab-Fab'-NEM
T2 construct: whole, on cells; Endogenous CD20 on lymphoma cell lines; also called cell-surface CD20
T2 sequence (looked up): T1 sequence (looked up)
Description: (§1) Cells (Daudi, Raji, or Ramos) in 0.5 mL of CM (phenol red-free RPMI 1640 media supplemented with 10% FBS) at 1×10⁶ cells/mL were incubated with 5 μg of each PE-labeled MAb at room temperature for 30 min, pelleted at 400×g, washed twice with CM, resuspended in 1.5 mL of CM, and split into two 0.75-mL aliquots. […] Subsequent measurements were taken at 30-min intervals. The percent maximal binding, which is the quotient of the MFI at T=X divided by that at T=0, was plotted against time, and the results analyzed by Prism software (GraphPad Software Inc., San Diego, Calif.) to yield the half-life or off-rates.

[4] = biological target: T2, CD20 (human B lymphocyte-restricted …); assay: saturation binding of 125I-labelled MAb to Raji cells, nonlinear regression / Scatchard; apparent KD, replicate assays
Description: (§2) Raji cells (5×10⁵) were incubated with radioiodinated MAbs in an assay volume of 225 μl, using tissue culture media as diluent, for 1 h at 37° C. or room temperature. Cells then were washed twice with PBS containing 1% horse serum, and cell pellets were counted in a gamma counter. The MAbs were titrated at a 2:3 serial dilution starting with approximately 2×10⁶ cpm/2 μg MAb/tube, run in triplicate. Non-specific binding was measured by including replicate unlabeled MAb.

[5] = biological target: T2, CD20 (human B lymphocyte-restricted …); assay: direct cell-surface saturation binding of 125I-labelled MAb to Raji cells; non-linear regression, one-site binding model (Prism); one representative of three experiments
Description: FIG. 4. […] Bₘₐₓ and Kd were determined by non-linear regression analysis using a one-site binding model with Prism software.
as §2

[6] = biological target: T2, CD20 (human B lymphocyte-restricted …); assay: flow cytometry, dissociation of PE-labelled MAb from live Raji cells (exp 1) at 37 C with excess veltuzumab Fab'-NEM; % T=0 MFI against time, one-phase exponential decay fit [table, column Raji (exp 1)]
Description: (§3) FIG. 5. […] The off-rate was determined by non-linear regression (one phase exponential decay) and P-values were generated by F-test using GraphPad Prism software.
as §1

[7] = biological target: T2, CD20 (human B lymphocyte-restricted …); assay: flow cytometry, dissociation of PE-labelled MAb from live Raji cells (exp 2) at 37 C with excess veltuzumab Fab'-NEM; % T=0 MFI against time, one-phase exponential decay fit [table, column Raji (exp 2)]
Description: as §1

[8] = biological target: T2, CD20 (human B lymphocyte-restricted …); assay: flow cytometry, dissociation of PE-labelled MAb from live Ramos cells at 37 C with excess veltuzumab Fab'-NEM; % T=0 MFI against time, one-phase exponential decay fit [table, column Ramos]
Description: as §3, §1

[9] = biological target: T2, CD20 (human B lymphocyte-restricted …); assay: flow cytometry, dissociation of PE-labelled MAb from live Daudi cells at 37 C with excess veltuzumab Fab'-NEM; % T=0 MFI against time, one-phase exponential decay fit [table, column Daudi]
Description: as §3, §1

anti-idiotype antibodies = assay: binding of radioiodinated MAb to anti-idiotype antibodies
[10] = biological target: T2, CD20 (human B lymphocyte-restricted …); assay: flow cytometry, PE-labelled MAb dissociating from Daudi, Ramos and Raji cells at 37 C with excess veltuzumab-Fab'-NEM
Description: as §1

[11] = biological target: T2, CD20 (human B lymphocyte-restricted …); assay: flow cytometry off-rate on lymphoma cells, with or without a competitive binder (summary of Example 5)
Description: as §1

[12] = biological target: T2, CD20 (human B lymphocyte-restricted …); assay: flow cytometry, PE-labelled MAb dissociating from Raji cells at 37 C with excess veltuzumab-Fab'-NEM
Description: as §1

- dissociation half-life [1]: 195 min
Molecule: 1F5, murine anti-CD20 monoclonal antibody

- ADCC (% lysis), Daudi targets, Donor 001 [2]: 47.5 % lysis
- ADCC (% lysis), Daudi targets, Donor 006 [2]: 24.2 % lysis
- ADCC (% lysis), Daudi targets, Donor 009 [2]: 33.4 % lysis
B1: V102Y, variant of hA20 with Val to Tyr at Kabat position 102 in the CDR3 of VH (antibody, name in Kabat numbering, V domains shown)
VH: QVQLQQSGAEVKKPGSSVKVSCKASGYTFTSYNMHWVKQAPGQGLEWIGAIYPGNGDTSYNQKFKGKATLTADESTNTAYMELSSLRSEDTAFYYCARSTYYGGDWYFDYWGQGTTVTVSS
VL: DIQLTQSPSSLSASVGDRVTMTCRASSSVSYIHWFQQKPGKAPKPWIYATSNLASGVPVRFSGSGSGTDYTFTISSLQPEDIATYYCQQWTSNPPTFGGGTKLEIK

- ADCC (% lysis), Daudi targets, Donor 001 [2]: 58.3 % lysis
- ADCC (% lysis), Daudi targets, Donor 006 [2]: 31.5 % lysis
- ADCC (% lysis), Daudi targets, Donor 009 [2]: 54.5 % lysis
B2: YDE, Fc variant of V102Y with S239D and I332E in the CH2 domain (antibody, name in Kabat numbering, V domains shown)
VH: B1 VH
VL: B1 VL

- dissociation half-life [3]: 281 min
- Kd [4]: 6.23 to 12 nM
- Kd [5]: 10.8 nM
- Dissociation Rates (T 1/2 Min) [6]: 59.1 min
- Dissociation Rates (T 1/2 Min) [7]: 61.8 min
- Dissociation Rates (T 1/2 Min) [8]: 57 min
- Dissociation Rates (T 1/2 Min) [9]: 54.4 min
- immunoreactivity (anti-idiotype antibodies): > 90%
- dissociation half-life, fold longer than rituximab [10]: 2.7 fold
- off-rate, fold slower than rituximab or D101N [11]: ~2.5 fold
B3: veltuzumab (hA20), humanized anti-CD20 antibody (antibody, V domains shown)
VH: B1 VH with Y110V
VL: B1 VL
notes: It was 125I-labelled in the Scatchard assay and PE-labelled (Zenon kit) in the off-rate assay; also called v-mab; Vmab

- dissociation half-life [3]: 42 min
- Dissociation Rates (T 1/2 Min) [7]: 9.4 min
- off-rate, fold faster than rituximab [12]: 2 fold
- off-rate, fold faster than veltuzumab [12]: 6 fold
B4: D101N, mutant of veltuzumab with Asp to Asn at Kabat position 101 in CDRH3 (antibody, name in Kabat numbering, V domains shown)
VH: B1 VH with D109N, Y110V
VL: B1 VL
notes: Same CDRs as rituximab and identical FRs to veltuzumab; also called D101N-hA20

- dissociation half-life [3]: 94 min
- Kd [4]: 6.7 to 8.63 nM
- Kd [5]: 8.62 nM
- Dissociation Rates (T 1/2 Min) [6]: 24.3 min
- Dissociation Rates (T 1/2 Min) [7]: 21.4 min
- Dissociation Rates (T 1/2 Min) [8]: 19 min
- Dissociation Rates (T 1/2 Min) [9]: 20.1 min
B5: rituximab (chimeric anti-CD20, c2B8) (antibody, V domains shown)
VH: QVQLQQPGAELVKPGASVKMSCKASGYTFTSYNMHWVKQTPGRGLEWIGAIYPGNGDTSYNQKFKGKATLTADKSSSTAYMQLSSLTSEDSAVYYCARSTYYGGDWYFNVWGQGTTVTVSS
VL: QIVLSQSPAILSASPGEKVTMTCRASSSVSYIHWFQQKPGSSPKPWIYATSNLASGVPVRFSGSGSGTSYSLTISRVEAEDAATYYCQQWTSNPPTFGGGTK
notes: Commercial chimeric antibody; also called IDEC-c2B8; Rmab

- Dissociation Rates (T 1/2 Min) [6]: 62 min
- Dissociation Rates (T 1/2 Min) [8]: 54.8 min
- Dissociation Rates (T 1/2 Min) [9]: 58.8 min
- off-rate, fold slower than rituximab or D101N [11]: ~2.5 fold
B6: cA20, chimeric anti-CD20 antibody (antibody, V domains shown)
VH: B5 VH with N109D
VL: DIQLTQSPAILSASPGEKVTMTCRASSSVSYIHWFQQKPGSSPKPWIYATSNLASGVPVRFSGSGSGTSYSLTISRVEAEDAATYYCQQWTSNPPTFGGGTKLEIK
